What was measured:
[1] = target: BA.2.12.1 spike, recombinant trimer that retains the native sequence (SARS-CoV-2) (UniProt P0DTC2); test: cryo-EM structure
[2] = target: BA.4 spike, recombinant trimeric S-twin-Strep, prefusion stabilized (SARS-CoV-2) (UniProt P0DTC2); test: cryo-EM structure

Substance: BA.2.12.1 spike, recombinant trimer that retains the native sequence (from UniProt P0DTC2) (natural protein)
- stoichiometry N (chains per oligomer) [1]: 3

Substance: BA.4 spike, recombinant trimeric S-twin-Strep, prefusion stabilized (from UniProt P0DTC2 28-1147) (natural protein)
- stoichiometry N (chains per oligomer) [2]: 3
